Results reported in publication PMC2139800 (The Journal of Cell Biology, 1997).

Target: F-actin (unlabeled) (rabbit, UniProt P68135 1-377)
Experiment: co-sedimentation

B1: His6–l-afadin-C (aa 1631–1829) (domain or fragment)
chain: DRVRQEEDGRHQEEERVKRDAEEKRRQEEGYYSRLEAERRRQHEEAARRLLEPEEPGLSRPPLPQDYEPPSQSSAPSAPPPPPQRNASYLKTQVLSPDSLFTAKFVAYDDDDEEENYVPAGPNSYSGSAGTTAGTYDAPRDTREKLSRSQDADLPGSSGAPENLTFRERQRLFSQGQDVSDKVKASRKLTELENELNTK
  stoichiometry N: ~500 actin molecules per His6–l-afadin-C molecule
